Data on 13 molecules can be found in US20230357415A1 (AJOU UNIVERSITY INDUSTRY ACADEMIC COOPERATION FOUNDATION, published 2023).

The term Kd denotes the concentration at which binding is half-saturated. Low values mean tighter binding, high ones weaker binding. The koff is a measure of how fast the partners let go of each other. One may read the kon as the second-order rate constant of association. Read a high kon as faster complex formation.

B1: 4R34.1.19 antibody (antibody, V domains shown)
VH: EVQLLESGGGLVQPGGSLRLSCAASGFTFSRHAMAWVRQAPGKGLEWVSAITSSGRSIYYADSVKGRFTISRDNSKNTLYLQMNSLRAEDTAVYYCARVHRAFDYWGQGTLVTVSS
VL: QSVLTQPPSASGTPGQRVTISCSGSPLFPDSGSFNWYQQLPGTAPKLLIYADSHRPSGVPDRFSGSKSGTSASLAISGLRSEDEADYYCGTWDYSLSGYVLGGGTKLTVLG
notes: Parent anti-IL-4Rα antibody, tested as IgG1 and captured through human Fc; also called anti-IL-4Rα antibody (4R34.1.19)
B2: 4R.N4 (antibody, V domains shown)
VH: B1 VH with S53M, S57G
VL: B1 VL with G98A
notes: Converted from scFab to IgG1 and expressed in HEK293F
B3: 4R.N6 (antibody, V domains shown)
VH: B1 VH with S53M
VL: B1 VL with S97N, G98S
notes: as for B2
B4: 4R.N1 (antibody, V domains shown)
VH: B1 VH with S53A
VL: B1 VL with S97N, G98R
notes: Converted from scFab to IgG1 (pcDNA3.4 vector with IgG1 constant regions) and expressed in HEK293F
B5: 4R.N3 (antibody, V domains shown)
VH: B1 VH with S53M
VL: B1 VL with S97N, G98R
notes: as for B2
B6: 4R.N7 (antibody, V domains shown)
VH: B1 VH with S53A
VL: B1 VL with G98S
notes: as for B2
B7: 5R65.39 (antibody, IgG1, V domains shown)
VH: QVQLVQSGAEVKKPGSSVKVSCKASGYTFTSYWINWVRQAPGQGLEWIGHIYPNKNENYYNHKFKDKATLTVDKSTNTAYMELSSLRSEDTAVYYCTREFYGRSRYSAMDYWGQGTTLTVSS
VL: DIQMTQSPSTLSASVGDRVTITCKASQNVGTAVAWYQQKPGKAPKLLIYWASTRHTGVPDRFSGSGSGTDFTLTISSLQPDDFATYYCQQFGRYPYTFGSGTKVEVK
notes: IgG1
B8: 5R65 (antibody, V domains shown)
VH: B7 VH with E99D, F100Y, R105Y, S107Y
VL: B7 VL
notes: IgG1 (variable regions in a pcDNA3.4 vector encoding IgG1 constant regions); also called anti-IL-5Rα humanized antibody 5R65; anti-IL-5Rα antibody (5R65)
B9: 5R65.10 (antibody, IgG1, V domains shown)
VH: B7 VH with F100Y, R105Y, S107A
VL: B7 VL
notes: IgG1
B10: 5R65.14 (antibody, IgG1, V domains shown)
VH: B7 VH with F100H, S104P, R105Y, S107N
VL: B7 VL
notes: IgG1
B11: 5R65.18 (antibody, IgG1, V domains shown)
VH: B7 VH with F100Y, S104T, R105Y
VL: B7 VL
notes: IgG1
B12: 5R65.7 (antibody, IgG1, V domains shown)
VH: B7 VH with S104Q, R105Y, S107Q
VL: B7 VL
notes: IgG1
B13: 4R.N5 (antibody, V domains shown)
VH: B1 VH with S53A, R56M, S63F, V64A
VL: B1 VL with S97N, G98R
notes: as for B2

Substitutions are numbered along the chain they refer to.

T2 sequence (P01308 25-54 limits assumed, chain 1 of 2): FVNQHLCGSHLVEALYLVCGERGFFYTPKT
T2 sequence (P01308 90-110 limits assumed, chain 2 of 2): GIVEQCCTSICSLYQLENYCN

One assay deals with T1, sIL-5Rα antigen protein (Sinobio 10392-H08H) (Homo sapiens (Human), UniProt Q01344 21-342).
T1 construct: Bought protein immobilised in the indirect ELISAs; also called soluble IL-5Rα; CD125
T1 sequence: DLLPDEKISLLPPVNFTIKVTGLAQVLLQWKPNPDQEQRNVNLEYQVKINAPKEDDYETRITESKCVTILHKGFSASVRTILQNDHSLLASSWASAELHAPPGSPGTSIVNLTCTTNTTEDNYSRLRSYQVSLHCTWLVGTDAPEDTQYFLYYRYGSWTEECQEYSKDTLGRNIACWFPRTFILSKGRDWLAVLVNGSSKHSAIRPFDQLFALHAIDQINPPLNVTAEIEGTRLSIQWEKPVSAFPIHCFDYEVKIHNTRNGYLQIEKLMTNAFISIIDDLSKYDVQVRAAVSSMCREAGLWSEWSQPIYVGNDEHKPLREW
Briefly: indirect ELISA; plate-coated sIL-5Rα, antibody 100 nM, anti-human Fc-HRP, absorbance at 450 nm. How it is done:
(§1) The binding specificity of the antibody was determined using indirect ELISA. A multi-antigen ELISA was performed using four structurally different antigenic double-stranded DNA (dsDNA), insulin, the macromolecule hemocyanin, and the membrane component, cardiolipin. Specifically, sIL-4Rα antigen protein (50 ng/well, sinobio; 10402-H08H), sIL-5Rα antigen protein (50 ng/well, sinobio; 10392-H08H), dsDNA (25 ng/well, D4522; Sigma), insulin (125 ng/well, 19278; Sigma), hemocyanin (125 ng/well, H8283; Sigma), and cardiolipin (1250 ng/well, C0563; Sigma) proteins were immobilized on a 96-well plate at room temperature for 1 hour, and blocked using 2% skim milk containing 0.1% PBST (0.1% Tween20, pH 7.4, 137 mM NaCl, 10 mM phosphate, 2.7 mM KCl) at room temperature for 1 hour. After discarding the solution and then washing the same three times with 0.1% PBST, the antibody was diluted to 100 nM, added to the blocked plate in an amount of 25 μl/well, and allowed to react at room temperature for 1 hour. After discarding the solution and washing the same three times with 0.1% PBST, an anti-human Fc-HRP antibody (1:8000) as a secondary antibody was added in an amount of 25 μl/well and reacted at room temperature for 1 hour. After discarding the solution and washing three times with PBST, a TMB solution was added in an amount of 25 μl/well, color development was induced at room temperature for 2 minutes, the reaction was stopped using H₂SO₄ (2N), and the absorbance at 450 nm was measured with an ELISA reader.
On the technique in general: An ELISA detects its analyte on a solid surface through an enzyme-linked reagent.
As for B1, the binding result is “binds”.

Regarding B2, the binding result is reported as “no binding (tested: 100 nM)”.

On to B3, for which the binding result was “no binding (tested: 100 nM)”.

With B4, the binding result is “no binding (tested: 100 nM)”.

Turning to B5, the binding result is listed as “no binding (tested: 100 nM)”.

As to B6, the binding result is listed as “no binding (tested: 100 nM)”.

The next assay addresses T2, insulin (Homo sapiens (Human), UniProt P01308 25-54; P01308 90-110, Mature two-chain hormone: A and B chains joined by two interchain disulfides, plus one intrachain disulfide in the A chain; the letters do not carry these.).
T2 construct: Irrelevant antigen of the multi-antigen specificity ELISA; also called insulin (125 ng/well, 19278; Sigma)
Nature of the assay: indirect ELISA; plate-coated insulin, antibody 100 nM, anti-human Fc-HRP, absorbance at 450 nm. The method, then: as §1
In the case of B2, the binding result is given as “no binding (tested: 100 nM)”.

Consider B3, for which the binding result is reported as “no binding (tested: 100 nM)”.

For the molecule B4, the binding result is “no binding (tested: 100 nM)”.

Take B5: the binding result is recorded as “no binding (tested: 100 nM)”.

B6: the binding result is “no binding (tested: 100 nM)”.

Another assay has as its target T3, sIL-4Rα (soluble IL-4Rα) antigen protein (human, UniProt P24394 26-232).
T3 construct: The ELISA and Octet assays used the bought protein (Sinobio 10402-H08H); also called CD124; sinobio 10402-H08H
Nature of the assay: indirect ELISA; plate-coated sIL-4Rα, antibody 100 nM, anti-human Fc-HRP, absorbance at 450 nm. The method, then:
as §1, with “of anti-IL-5Rα humanized antibodies” for “of the antibody”, “ng/well, Sinobio;” for “ng/well, sinobio;”, “[…],” for “25 μl/well,”, “hour. […]” for “hour. After discarding the solution and washing the same three times with 0.1% PBST, an anti-human Fc-HRP antibody (1:8000) as a secondary antibody was added in an amount of 25 μl/well and reacted at room temperature for 1 hour.”
Regarding B7, the binding result is “no binding (tested: 100 nM)”.

For a further assay, the target named is T2, insulin. Nature of the assay: indirect ELISA; plate-coated insulin, antibody 100 nM, anti-human Fc-HRP, absorbance at 450 nm. This is another data set of the same source. The method, then: as §1, with “of anti-IL-5Rα humanized antibodies” for “of the antibody”, “ng/well, Sinobio;” for “ng/well, sinobio;”, “[…],” for “25 μl/well,”, “hour. […]” for “hour. After discarding the solution and washing the same three times with 0.1% PBST, an anti-human Fc-HRP antibody (1:8000) as a secondary antibody was added in an amount of 25 μl/well and reacted at room temperature for 1 hour.”
On to B7, for which the binding result is recorded as “no binding (tested: 100 nM)”.

For a further assay, the target named is T4, purified sIL-5Rα (Asp1-Asn313 of SEQ ID NO: 66) (Homo sapiens (Human), UniProt Q01344 21-333).
T4 construct: also called the purified sIL-5Rα
T4 sequence: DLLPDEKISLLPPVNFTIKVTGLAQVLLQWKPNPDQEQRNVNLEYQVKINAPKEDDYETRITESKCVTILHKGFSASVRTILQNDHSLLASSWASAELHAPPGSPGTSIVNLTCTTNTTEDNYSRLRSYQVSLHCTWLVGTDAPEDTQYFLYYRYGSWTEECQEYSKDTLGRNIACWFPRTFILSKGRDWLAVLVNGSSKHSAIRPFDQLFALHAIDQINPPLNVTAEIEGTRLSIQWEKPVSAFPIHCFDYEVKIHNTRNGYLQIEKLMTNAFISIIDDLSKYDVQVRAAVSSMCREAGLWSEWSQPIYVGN
Briefly: BLI (Octet QKe), antibody on AHC sensor, purified sIL-5Rα in solution, 1:1 model. The method, then: Specifically, lx kinetic buffer was prepared by diluting 10× kinetic buffer (ForteBio, 18-1105) in PBS. […] Affinity was calculated with Octet Data Analysis software 11.0 in a 1:1 binding model.
For orientation: BLI is a label-free optical method that tracks binding on a fibre tip over time.
In turn, B8 registered a Kd of 14.5 nM, a koff of 0.000329 s⁻¹ and a kon of 22700 M⁻¹ s⁻¹.

With B7, the Kd was found to be 6.13 nM, the dissociation rate constant (koff) was 0.000171 s⁻¹ and the kon came out at 28000 M⁻¹ s⁻¹.

B9 returned a Kd of 8.25 nM, a koff of 0.000201 s⁻¹ and a kon of 24400 M⁻¹ s⁻¹.

The molecule B10 had a Kd of 8.64 nM, a koff of 0.000199 s⁻¹ and a kon of 23000 M⁻¹ s⁻¹.

With B11, binding was characterised by a dissociation constant (Kd) of 5.95 nM, the koff amounted to 0.000133 s⁻¹ and the association rate constant (kon) stood at 22400 M⁻¹ s⁻¹.

B12 had a Kd of 4.64 nM, a koff of 0.000147 s⁻¹ and an association rate constant (kon) of 31700 M⁻¹ s⁻¹.

Another assay addresses T3, sIL-4Rα (soluble IL-4Rα) antigen protein. Briefly: BLI (Octet QKe), antibody on AHC sensor, sIL-4Rα in solution, 1:1 model. The method, then:
Antigen affinity of antibodies was analyzed through variation in the refractive index occurring when the antibody bound to the antigen was detached therefrom while the AHC (anti-human IgG Fc capture) sensor chip moved in the order of kinetic buffer, antibody dilution solution, kinetic buffer, antigen dilution solution, and kinetic buffer. Affinity was calculated with Octet Data Analysis software 11.0 in a 1:1 binding model.
Regarding B2, the Kd is 0.0997 nM, the koff turned out to be 0.000162 s⁻¹ and the kon was found to be 1.63e+06 M⁻¹ s⁻¹.

B13 registered a Kd of 0.0748 nM, a koff of 0.00012 s⁻¹ and an on-rate constant (kon) of 1.6e+06 M⁻¹ s⁻¹.

B3 had a Kd of 0.0705 nM, a koff of 0.000126 s⁻¹ and an on-rate constant (kon) of 1.79e+06 M⁻¹ s⁻¹.

For the molecule B4, binding was characterised by a dissociation constant (Kd) of 0.17 nM, the koff amounted to 0.000338 s⁻¹ and the on-rate (kon) stood at 1.99e+06 M⁻¹ s⁻¹.

The molecule B5 had a Kd of 0.0686 nM, a koff of 0.000139 s⁻¹ and a kon of 2.02e+06 M⁻¹ s⁻¹.

In turn, B6 yielded a Kd of 0.0431 nM, a koff of 6.07e-05 s⁻¹ and a kon of 1.55e+06 M⁻¹ s⁻¹.
